Experiment: soluble on expression in E. coli; label from the status in PepcDB or PDB records

Question: With “MWQQAIGDALGITARNLKKFGDRFPHVSDGSNKYVLNDNTDWTDGFWSGILWLCYEYTGDEQYREGAVRTVASFRERLDRFENLDHHDIGFLYSLSAKAQWIVEKDESARKLALDAADVLMRRWRADAGIIQAWGPKGDPENGGRIIIDCLLNLPLLLWAGEQTGDPEYRRVAEAHALKSRRFLVRGDDSSYHTFYFDPENGNAIRGGTHQGNTDGSTWTRGQAWGIYGFALNSRYLGNADLLETAKRMARHFLARVPEDGVVYWDFEVPQEPSSYRDSSASAITACGLLEIASQLDESDPERQRFIDAAKTTVTALRDGYAERDDGEAEGFIRRGSYHVRGGISPDDYTIWGDYYYLEALLRLERGVTGYWYERGR” as the sequence, how does the “soluble on expression in E. coli” value read?
Answer: The value was “soluble”.

Question: Which “soluble on expression in E. coli” value does the source give for “MGSDKIHHHHHHMKSYVLTVSCKSTRGIVAAITGYLAEKGCYISDSSQFDDFQTGLFFMRLTFISQDGAKLEELREGFEPVIKRFEMMMEIRDSEERMKVLLMVSRFGHCLNDLLYRWKIGALPIDIVGVVSNHFDYQKVVVNHDIPFHHIKVTKENKPKAEAQLMDVVEQTGAELIVLARYMQVLSDALCKKMSGKIINIHHSFLPSFKGANPYKQAYERGVKLIGATAHYVTADLDEGPIIEQDIARITHAQSAEDYVSIGRDVESQVLARAVHAHIHHRCFINGNRVVVFPPSPGSYASERMG” here?
Answer: The value was “not soluble”.

Question: For “MQWSKEEEAAARKKVKENSAVRVLLEEQVKYEREASKYWDTFYKIHKNKFFKDRNWLLREFPEILPVDQKPEEKARESSWDHVKTSATNRFSRMHCPTVPDEKNHYEKSSGSSEGQSKTESDFSNLDSEKHKKGPMETGLFPGSNATFRILEVGCGAGNSVFPILNTLENSPESFLYCCDFASGAVELVKSHSSYRATQCFAFVHDVCDDGLPYPFPDGILDVILLVFVLSSIHPDRTLFI”, which “soluble on expression in E. coli” value is on record?
Answer: Its value is “soluble”.

Question: With “MEQYHKIVLTGSNAETMLIKNIEPVAVKFINNYKGFFYVFKYSKDFPIIDVYINNKIVTENQLNKILQNSGAKYKIYKNSIFNETQGNFGMLGDKYLAEFFKKTNEISLNILNQNFESYNKKIEFALEIMLISAHYNYDSIKKGYLSYASHVNGFFTRWKDPNKIRDIFHKNYLNNKEYLESKVSEIIDNNNRSSLSELSDIITEMKKEMTTDIEKGNLHVFNIELLQKPGERDFLEKSQFHKTILNNPDFSNFMNKDINFLGSRLITVFTYLLIRNLGIQNKDRYLLCYYIYKIIEEKYNIDTLELIRDFGKGRDNNVEDLQRY” as the sequence, how does the “soluble on expression in E. coli” value read?
Answer: The value was “not soluble”.

Question: Which “soluble on expression in E. coli” value does the source give for “MAMAVSGAVLSGLGSSFLTGGKRGATALASGVGTGAQRVGRKTLIVAAAAAQPKKSWIPAVKGGGNFLDPEWLDGSLPGDFGFDPLGLGKDPAFLKWYREAELIHGRWAMAAVLGIFVGQAWSGVAWFEAGAQPDAIAPFSFGSLLGTQLLLMGWVESKRWVDFFNPDSQSVEWATPWSKTAENFANYTGDQGYPGGRFFDPLGLAGKNRDGVYEPDFEKLERLKLAEIKHSRLAMVAMLIFYFEAGQGKTPLGALGL” here?
Answer: The value was “soluble”.

Question: With “MRQQNGWVLKGGTNIYCRIPGARQTKDLDLYRRDDPTSSTGAAESLVSAMNGYKIGPYIFHVIHPRQSGGVGTVDSERIDVTVIHGINNRLVSFGVDVSGDLEVTGTVEPVTVATSYKVHTEFLPQRFKVYSYPVASQIADKICAMYERHGNTPPGRASTRYHDLYDVALMARELTVSAFDLRSALDTQCRVRNMSLPNHLTIPDESWKDQYPIKARNFGDEQWGLTELDEALRVAGLLINPILNREFKESDRAWNCTALLWE” as the sequence, how does the “soluble on expression in E. coli” value read?
Answer: Its value is “not soluble”.

Question: For “MMQISSNGITRLKREEGERLKAYSDSRGIPTIGVGHTGKVDGNSVASGMTITAEKSSELLKEDLQWVEDAISSLVRVPLNQNQYDAMCSLIFNIGKSAFAGSTVLRQLNLKNYQAAADAFLLWKKAGKDPDILLPRRRRERALFLS”, which “soluble on expression in E. coli” value is on record?
Answer: Its value is “soluble”.

Question: Which “soluble on expression in E. coli” value does the source give for “MSLESSDDAPLPTDVPKDAAEALVCFLTQHVRALMSPHADPVPSCPRCGGTQIHKKGYAPLQTGPLPTYQCEGCDHYFSRLSGTPLSGHRIRRSAEELITMLPQAIGCPEAARRLGVMERTIRNTVRMFRRWVLELDPSGHHERHIRLGGRFTAVRDQAPPVVDEQIAYEDVALTAKLLEDFETIHSNKHFPMPDCPACGADRLVTKGTFSGFARFKCASCGKQFNRRTGTPFTRNRKVYERQRALIRYLGLPLSITQLAEIVGGDHGNVARLIREFRERCDQLDPTGQLSHRIRAGARPAEDTPCIQCGARHVRFDVRGITPGKCAVCGRLISMRRAIIERDGVLEVGPWQWAEQLQQEGHHHHHH” here?
Answer: The value was “not soluble”.

Question: Which “soluble on expression in E. coli” value does the source give for “MRHNIFYNRREFQMIDNFMQVLKLIKEKRTNNVVKKSDWDKGDLYKTLVHDKLPKQLKVHIKEDKYSVVGKVATGNYSKVPWISIYDENITKETKDGYYLVYLFHPEGEGIYLSLNQGWSKISDMFPRDKNAAKQRALTLSSELNKYITSNEFNTGRFYYAENKDSSYDLKNDYPSGYSHGSIRFKYYDLNEGFTEEDMLEDLKKFLELFNELASKVTKTSYDSLVNSIDEIQEDSEIEEIRTAQKDKTLKEVEAPKGIIPKYKKGVSKTTKNDSEIEKSNKENKLTGKVGEKLALNYFNELIDNKIDEDKKEQFRNILNDNPGSQHGHGYDLVAFDPTNTDKAVEKFIEIKTSTSSSIEEPFFMSLNEMFAMKEYKQKYLILRIFNVSGKEPQFYFIDPYANYSEFKDVDDLIDKVFNVEAIQYKVFGEKLEHHHHHH” here?
Answer: The value was “not soluble”.

Question: For “MPMSSLPAAILSHMTAINNVPPPPLHSIPNLKKSKHINYGQLNALCHIRGQHSRSMSNILSAHDTFMKQYPKVFLHQKPRLPKLFKQEEQRELNEGKEESQHQQPDDSNNIAVHVQRAHGGHILYRPKRATEKFEEFLAILKKLPIHRTPYEHKTVWKFLKTIPDLTFQLNDKHLKTLSKTVFSETWLKGSTVVANDGFYVILKGLARPQTNVYKNLIEGSDSPDSFISQSFHSFIWSEEFKNSTLAEMYLPSYDSMLSKWSTFGTLEVMPQNESETQMFSVVTEDDCEILKIPAKGYAKIKEEKIKLENMQKLKLIRMCPYYEEWPTLSIYELIALLKWKKFPPGHVIVESGNIISFVGYINSGCCNIYRSIIGFVKLRSNKVKRSQKLVYMGKLKEKESFGEISVLLQVPFTCTIITKKEVEMAIIEDKDLFVA”, which “soluble on expression in E. coli” value is on record?
Answer: The value was “soluble”.

Question: For “MKETEQVSEAPHGLEGAWLDLTNRVRVSGDTVEACSAFSIGPPRCRWLLQATDRGVNCAALDHYVPHICGTHTETVYHIAHHRYIKRAVCEIPFFRFHKARIQVCTAKIACTEQVLPSADTDYPCLEPNDLIVGPSALNRAPRYTRAQDSTIEALILIVVGPDGTSDWRDGKLDDRPPYLTPAAIESLATRYPNMRHLLTNLPSVDRRRDGGLVRSHRAFFATDFAGDGTPSESPQKTITELLRVPPDWQLYDDAEGVVCISLAPIEGLDAIPSSVYFKSH”, which “soluble on expression in E. coli” value is on record?
Answer: Its value is “not soluble”.

Question: With “GKVLDAIIQEKKSGRIPGIYGRLGDLGAIDEKYDIAISSCCHALDYIVVDSIDTAQECVNFLKKHNIGIATFIGLDKMTVWAKKMSKIQTPENTPRLFDLVKVKNEEIRQAFYFALRDTLVANNLDQATRVAYQRDRRWRVVTLQGQIIEQSGTMSGGLEHHHHHH” as the sequence, how does the “soluble on expression in E. coli” value read?
Answer: Its value is “soluble”.

Question: For “MGSDKIHHHHHHMSVSPEFTRGKIHDVVVKPLGKFLDERGWLAELFRSDETDPATMPVMAYVSMTRPGIVRGPHEHVDQTDWFCFIGPSNFKVYLWDSRPDSPTHGVKQTLFAGIDAPMSVIVPPGVVHAYKNVGGVDGIVFNAPNRLYAGEGKSSPVDEIRHEDVAGSPFILD”, which “soluble on expression in E. coli” value is on record?
Answer: Its value is “not soluble”.

Question: With “MGSDKIHHHHHHMINIGLTGWGDHYSLYEDLERQTDKLKTYAGHFPVVELDATYYAIQPERNILKWIKETPDTFEFVVKIHQALTLHADYKTFADTRQELFDQFKNMLEPLHTQKKLAMVLVQFPPWFDCNAQNIKYILYVRQQLQAFPMCVEFRHQSWFSDAFKEQTLAFLTEHQIIHAVVDEPQVKDGSVPLVNRITNEIAFVRYHGRNHYGWTKKDMSDQEWRDVRYLYDYNEQELIDLAQKAQILAQKAKKVYVIFNNNSGGHAANNAKTYQRLLNIEYEGLAPQQLKLF” as the sequence, how does the “soluble on expression in E. coli” value read?
Answer: The value was “not soluble”.

Question: With “EDDEDYGDLGGCPFLVAENKTGYPTIVACKQDCNGTTETAPNGTRCFSIGDEGLRRMTANLPYDCPLGQCSNGDCIPKETYEVCYRRNWRDKKNHHHHHH” as the sequence, how does the “soluble on expression in E. coli” value read?
Answer: Its value is “soluble”.

Question: Which “soluble on expression in E. coli” value does the source give for “MGSDKIHHHHHHVTSLISVKRLNKSFPGVRALHEVQFELMAGEVHALMGENGAGKSTLMKILAGVYTRDSGEILYDGQPVEFLSPRDAQAVGVGIIHQELQLMNHLTVAQNIFIGREPRGRLGLLLDEDRLNAQAAAILARMHVSLDPRAVVGALTVARQQMVEIAKALSFDSRVLIMDEPTSALNDAEIAELFRIIRELKSRGVGIVYISHKMDELKQIADRVTVMRDGEYVATVAARDTSVEAIIGMMVGRTLTDIAPSHSVADQGEIALEVRNLNAGPLVRDVSFALRKGEILGFAGLMGAGRTEVARAVFGADPVESGEIVVNGARATIRTPSDAVAHGIGYLSEDRKRFGLATGMDVESNIVMSNLRKFLSLNFFLRRAQIRRTASHFISLLGIRTPSATQAVRLLSGGNQQKIVIAKWLERDCDVLFFDEPTRGIDVGAKNEIYKLLRSLAGEGKAVVMISSELPEILRMSDRVIVMCEGRITGELSAAEATQERIMHLATRRETLKTAA” here?
Answer: The value was “not soluble”.

Question: Which “soluble on expression in E. coli” value does the source give for “MSLNPFGNALIPDMIADASIQEINGVFYCYATTDGYGQGLKTSGPPVVWKSKDFVHWSFDGTYFPSAAKEKYWAPSKAIFANGKYYIYPTINGYMYPAVADKPEGPFKLARGKDEFYKPFTPSTLLQSKNPGGIDAEIFVDDDGQAYVFWGRRHVAKLNEDMITVDSVVQVISTPRKEYSEGPIFFKRKGIYYYLYTIGGDEKYQYAYVMSRVSPMGPFEAPEQDIISTTNYERGIFGPGHGCVFHPEGTDNYYFAYLEFGRRSTNRQTYVNQLKFNEDGTIRPVELTMDGVGALKKVKSDKKMKIDTVYASSIEVPLKIEPMKDPTCLRTEYFVPSFAVDGANGSRWMAAAEDSINPWIVADLGTVKKVRRSEIYFVRPTAGHAYVIEASMDGKVWQEFAVHQDRKMCSPHTDVLNKRFRYLRIKILKGVPGIWEWNIYEGHHHHHH” here?
Answer: The value was “not soluble”.

Question: Which “soluble on expression in E. coli” value does the source give for “MVMEYLVLEKRLKRLREVLEKRQKDLIVFADNVKNEHNFSAIVRTCDAVGVLYLYYYHAEGKKAKINEGITQGSHKWVFIEKVDNPVQKLLEFKNRGFQIVATWLSKESVNFREVDYTKPTVLVVGNELQGVSPEIVEIADKKIVIPMYGMAQSLNVSVATGIILYEAQRQREEKGMYSRPSLSEEEIQKILKKWAYEDVIKERKRTLSTS” here?
Answer: Its value is “soluble”.

Question: With “MAANQNVTKKKKAVIGGIFKAELNNFLMKELAEDGYSGVEVRSTPARAEVIIMATRTQNVLGERGRRIKELTSVVQKRFGFEEGSVELYAEKVSNRGLCAVAQCESLRYKLVGGLAVRRACYGVLRFIMESGAQGVEVIVSGKLRGQRAKAMKFVDGLMIHSGHPVNDYIQQAVRHVQLRQGVIGIKVKIMLPYDPRGQNGPRNALPDHVQIVEPQEEVLPKEPHSQHKEEKKDVQVPAAQPVAPVQ” as the sequence, how does the “soluble on expression in E. coli” value read?
Answer: Its value is “not soluble”.

Question: With “MGSDKIHHHHHHMGSLAVIDAPGWYETIRMADGVTLIHEPWIKPFFRCNIWHVRGRDRDLLFDTGLGHFSLRTHVPLVTERKLTCVASHTHFDHIGCHHEFPDRGVHPAEAKILADPRNEWTVADRYATDDMFDGLPQGWESSRYRILPAPADRLLDHGDVVDLGDRAFEVIHTPGHSPGGIALYEKKTGILLSGDIIYDGPLIDDVYHSDIPDYMATLLAMRELDVSVVHGGHFPSFGKVRYRQLIDEYLAQKRRAGCHLRQRP” as the sequence, how does the “soluble on expression in E. coli” value read?
Answer: The value was “not soluble”.

Question: Which “soluble on expression in E. coli” value does the source give for “SAGSVADSDAVVKLDDGHLNNSLSSPVQADVYFPRLIVPFCGHIKGGMRPGKKVLVMGIVDLNPESFAISLTCGDSEDPPADVAIELKAVFTDRQLLRNSCISGERGEEQSAIPYFPFIPDQPFRVEILCEHPRFRVFVDGHQLFDFYHRIQTLSAIDTIKINGDLQITKLG” here?
Answer: Its value is “soluble”.
